Laboratory results published in patent publication US20200289646A1.
Changes are numbered by the printed parent chain.

Biological target: human mesothelin (MSLN) (human) (UniProt Q13421)
Assay: cell-based or functional assay

Chain of human mesothelin (MSLN) (human) (Q13421 296-606 limits assumed): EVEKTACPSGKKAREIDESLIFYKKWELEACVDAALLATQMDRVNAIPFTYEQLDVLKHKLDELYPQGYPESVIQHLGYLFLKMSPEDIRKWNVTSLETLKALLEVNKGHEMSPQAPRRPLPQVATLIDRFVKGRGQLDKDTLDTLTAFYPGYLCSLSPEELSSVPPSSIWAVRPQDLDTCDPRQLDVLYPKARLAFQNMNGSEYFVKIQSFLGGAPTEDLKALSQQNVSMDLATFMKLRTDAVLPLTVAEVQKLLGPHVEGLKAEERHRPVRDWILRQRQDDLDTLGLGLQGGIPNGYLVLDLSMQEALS

B1: MSLN targeting trispecific protein 9H2 (protein, part only; not given: Albumin and CD3 binders, linkers, part only)
chain, part: QVQLVESGGGLVQAGGSLRLSCAASGSTSSINTMYWYRQAPGKERELVAFISSGGSTNVRDSVKGRFSVSRDSAKNIVYLQMNSLTPEDTAVYYCNTYIPLRGTLHDYWGQGTQVTVSSHHHHHH
TDCC Average EC50 [M], OVCAR8 cells, human T cells: 1.1e-12 M

B2: MSLN targeting trispecific protein 10B3 (protein, part only; not given: Albumin and CD3 binders, linkers, part only)
chain, part: B1 chain, part with T86K, L101Y, R102G, Y108F
TDCC Average EC50 [M], OVCAR8 cells, human T cells: 1.4e-12 M

B3: MSLN targeting trispecific protein 5C2 (protein, part only; not given: Albumin and CD3 binders, linkers, part only)
chain, part: B1 chain, part with Y37F, K43E, F50T, S52N, S53R, S84R, T86K, L101Y, R102G, Y108F
TDCC Average EC50 [M], OVCAR8 cells, human T cells: 1.5e-12 M

B4: MSLN targeting trispecific protein 11F3 (protein, part only; not given: Albumin and CD3 binders, linkers, part only)
chain, part: QVQLVESGGGLVQAGGSLRLSCVASGRTSTIDTMYWHRQAPGNERELVAYVTSRGTSNVADSVKGRFTISRDNAKNTAYLQMNSLKPEDTAVYYCSVRTTSYPVDFWGQGTQVTVSSHHHHHH
TDCC Average EC50 [M], OVCAR8 cells, human T cells: 2.2e-12 M

B5: MSLN targeting trispecific protein 6F3 (protein, part only; not given: Albumin and CD3 binders, linkers, part only)
chain, part: QVQPVESGGGLVQPGGSLRLSCVVSGSDFTEDAMAWYRQASGKERESVAFVSKDGKRILYLDSVRGRFTISRDIYKKTVYLQMDNLKPEDTGVYYCNSAPGAARNVWGQGTQVTVSSHHHHHH
TDCC Average EC50 [M], OVCAR8 cells, human T cells: 8.2e-10 M

B6: MSLN targeting trispecific protein 2A1 (protein, part only; not given: Albumin and CD3 binders, linkers, part only)
chain, part: B5 chain, part with Y75D, V106Y
TDCC Average EC50 [M], OVCAR8 cells, human T cells: 1.2e-09 M

B7: MSLN targeting trispecific protein 6H2 (protein, part only; not given: Albumin and CD3 binders, linkers, part only)
chain, part: QVQLVESGGGLVQAGGSLRLSCAASGRTLSRYAMGWFRQAPGKERQFVAAISRSGGTTRYSDSVKGRFTISRDNAANTFYLQMNNLRPDDTAVYYCNVRRRGWGRTLEYWGQGTQVTVSSHHHHHH
TDCC Average EC50 [M], OVCAR8 cells, human T cells: 2e-09 M

B8: MSLN targeting trispecific protein 2C2 (protein, part only; not given: Albumin and CD3 binders, linkers, part only)
chain, part: QVQLVESGGGLVQAGESRRLSCAVSGDTSKFKAVGWYRQAPGAQRELLAWINNSGVGNTAESVKGRFTISRDNAKNTVYLQMNRLTPEDTDVYYCRFYRRFGINKNYWGQGTQVTVSSHHHHHH
TDCC Average EC50 [M], OVCAR8 cells, human T cells: 9.5e-09 M

B9: MSLN targeting trispecific protein 9F3 (protein, part only; not given: Albumin and CD3 binders, linkers, part only)
chain, part: QVQLVESGGGLVQAGGSLRLSCAASGSIPSIEQMGWYRQAPGKQRELVAALTSGGRANYADSVKGRFTISGDNVRNMVYLQMNSLKPEDTAIYYCSAGRFKGDYAQRSGMDYWGKGTLVTVSSHHHHHH
TDCC Average EC50 [M], OVCAR8 cells, human T cells: > 1e-07 M

B10: MSLN targeting trispecific protein 3B4 (protein, part only; not given: Albumin and CD3 binders, linkers, part only)
chain, part: QVQLVESGGGLVQAGGSLRLSCVASGSTSNINNMRWYRQAPGKERELVAVITRGGYAIYLDAVKGRFTISRDNANNAIYLEMNSLKPEDTAVYVCNADRVEGTSGGPQLRDYFGQGTQVTVSSHHHHHH
TDCC Average EC50 [M], OVCAR8 cells, human T cells: 1.8e-12 M

B11: MSLN targeting trispecific protein 7H2 (protein, part only; not given: Albumin and CD3 binders, linkers, part only)
chain, part: QVQLVESGGGLVQAGGSLRLSCAFSGTTYTFDLMSWYRQAPGKQRTVVASISSDGRTSYADSVRGRFTISGENGKNTVYLQMNSLKLEDTAVYYCLGQRSGVRAFWGQGTQVTVSSHHHHHH
TDCC Average EC50 [M], OVCAR8 cells, human T cells: 5.5e-12 M

B12: MSLN targeting trispecific protein 7F1 (protein, part only; not given: Albumin and CD3 binders, linkers, part only)
chain, part: QVQLVESGGGLVQAGGSLRLSCAASAIGSINSMSWYRQAPGKQREPVAVITDRGSTSYADSVKGRFTISRDNAKNTVYLQMNSLKPEDTAIYTCHVIADWRGYWGQGTQVTVSSHHHHHH
TDCC Average EC50 [M], OVCAR8 cells, human T cells: 2.4e-12 M

B13: MSLN targeting trispecific protein 2F4 (protein, part only; not given: Albumin and CD3 binders, linkers, part only)
chain, part: B12 chain, part with A23T, A24T, A26T, I27T, G28F, K42N, D52N, S55T, K74R, N82D
TDCC Average EC50 [M], OVCAR8 cells, human T cells: 7.3e-13 M

B14: MSLN targeting trispecific protein 2D1 (protein, part only; not given: Albumin and CD3 binders, linkers, part only)
chain, part: B12 chain, part with A26T, I27T, G28S, P40Q
TDCC Average EC50 [M], OVCAR8 cells, human T cells: 5.2e-11 M

B15: MSLN targeting trispecific protein 9B1 (protein, part only; not given: Albumin and CD3 binders, linkers, part only)
chain, part: QVQLVESGGGLVQPGGSLRLSCAASGRTFSVRGMAWYRQAGNNRALVATMNPDGFPNYADAVKGRFTISWDIAENTVYLQMNSLNSEDTTVYYCNSGPYWGQGTQVTVSSHHHHHH
TDCC Average EC50 [M], OVCAR8 cells, human T cells: > 1e-07 M

B16: MSLN targeting trispecific protein 2A4 (protein, part only; not given: Albumin and CD3 binders, linkers, part only)
chain, part: QVQLVESGGGLVQARGSLRLSCTASGRTIGINDMAWYRQAPGNQRELVATITKGGTTDYADSVDGRFTISRDNAKNTVYLQMNSLKPEDTAVYYCNTKRREWAKDFEYWGQGTQVTVSSHHHHHH
TDCC Average EC50 [M], OVCAR8 cells, human T cells: 1.9e-09 M

B17: MSLN targeting trispecific protein 5H1 (protein, part only; not given: Albumin and CD3 binders, linkers, part only)
chain, part: QVQLVESGGGLVQPGGSLRLSCAASGGDWSANFMYWYRQAPGKQRELVARISGRGVVDYVESVKGRFTISRDNAKNTVYLQMNSLKPEDTAVYYCAVASYWGQGTQVTVSSHHHHHH
TDCC Average EC50 [M], OVCAR8 cells, human T cells: 5.9e-12 M

B18: MSLN targeting trispecific protein 3G1 (protein, part only; not given: Albumin and CD3 binders, linkers, part only)
chain, part: QVRLVESGGGLVQAGESLRLSCAASGRPFSINTMGWYRQAPGKQRELVASISSSGDFTYTDSVKGRFTISRDNAKNTVYLQMNSLKPEDTAVYYCNARRTYLPRRFGSWGQGTQVTVSSHHHHHH
TDCC Average EC50 [M], OVCAR8 cells, human T cells: 4e-09 M

B19: MSLN targeting trispecific protein 2A2 (protein, part only; not given: Albumin and CD3 binders, linkers, part only)
chain, part: QVQLVESGGGLVQAGGSLTLSCAASGSTFSIRAMRWYRQAPGTERDLVAVIYGSSTYYADAVKGRFTISRDNAKNTLYLQMNNLKPEDTAVYYCNADTIGTARDYWGQGTQVTVSSHHHHHH
TDCC Average EC50 [M], OVCAR8 cells, human T cells: 1.6e-12 M

B20: MSLN targeting trispecific protein 5F2 (protein, part only; not given: Albumin and CD3 binders, linkers, part only)
chain, part: B19 chain, part with T19R, S30R, A33V, Y52S, A61S, T98D, I99S, T101I
TDCC Average EC50 [M], OVCAR8 cells, human T cells: 5.3e-12 M

B21: MSLN targeting trispecific protein 4A2 (protein, part only; not given: Albumin and CD3 binders, linkers, part only)
chain, part: QVQLVESGGGLVQAGGSLRLSCAASGSTFGINAMGWYRQAPGKQRELVAVISRGGSTNYADSVKGRFTISRDNAENTVSLQMNTLKPEDTAVYFCNARTYTRHDYWGQGTQVTVSSHHHHHH
TDCC Average EC50 [M], OVCAR8 cells, human T cells: 1.7e-09 M

B22: MSLN targeting trispecific protein 5D4 (protein, part only; not given: Albumin and CD3 binders, linkers, part only)
chain, part: QVQLVESGGGLVQAGGSLRLSCVASGRTDRITTMGWYRQAPGKQRELVATISNRGTSNYANSVKGRFTISRDNAKNTVYLQMNSLKPEDTAVYYCNARKWGRNYWGQGTQVTVSSHHHHHH
TDCC Average EC50 [M], OVCAR8 cells, human T cells: 1e-09 M

B23: MSLN targeting trispecific protein 7C4 (protein, part only; not given: Albumin and CD3 binders, linkers, part only)
chain, part: QVQLVESGGGLVPSGGSLRLSCAASGATSAITNLGWYRRAPGQVREMVARISVREDKEDYEDSVKGRFTISRDNTQNLVYLQMNNLQPHDTAIYYCGAQRWGRGPGTTWGQGTQVTVSSHHHHHH
TDCC Average EC50 [M], OVCAR8 cells, human T cells: 1e-08 M

B24: MSLN targeting trispecific protein 12D1 (protein, part only; not given: Albumin and CD3 binders, linkers, part only)
chain, part: QVRLVESGGGLVQAGGSLRLSCAASISAFRLMSVRWYRQDPSKQREWVATIDQLGRTNYADSVKGRFAISKDSTRNTVYLQMNMLRPEDTAVYYCNAGGGPLGSRWLRGRHWGQGTQVTVSSHHHHHH
TDCC Average EC50 [M], OVCAR8 cells, human T cells: 1.1e-09 M

B25: MSLN targeting trispecific protein 5D2 (protein, part only; not given: Albumin and CD3 binders, linkers, part only)
chain, part: QVQLGESGGGLVQAGGSLRLSCAASGSIFSPNAMIWHRQAPGKQREPVASINSSGSTNYGDSVKGRFTVSRDIVKNTMYLQMNSLKPEDTAVYYCSYSDFRRGTQYWGQGTQVTVSSHHHHHH
TDCC Average EC50 [M], OVCAR8 cells, human T cells: 1.4e-11 M

B26: MSLN targeting trispecific protein 3F2 (protein, part only; not given: Albumin and CD3 binders, linkers, part only)
chain, part: QVQIVESGGGLVQAGGSLRLSCVASGLTYSIVAVGWYRQAPGKEREMVADISPVGNTNYADSVKGRFTISKENAKNTVYLQMNSLKPEDTAVYYCHIVRGWLDERPGPGPIVYWGQGTQVTVSSHHHHHH
TDCC Average EC50 [M], OVCAR8 cells, human T cells: 2.4e-08 M

B27: MSLN targeting trispecific protein 12C2 (protein, part only; not given: Albumin and CD3 binders, linkers, part only)
chain, part: QVQLVESGGGLVQTGGSLRLSCAASGLTFGVYGMEWFRQAPGKQREWVASHTSTGYVYYRDSVKGRFTISRDNAKSTVYLQMNSLKPEDTAIYYCKANRGSYEYWGQGTQVTVSSHHHHHH
TDCC Average EC50 [M], OVCAR8 cells, human T cells: 8e-13 M

B28: MSLN targeting trispecific protein 5G2 (protein, part only; not given: Albumin and CD3 binders, linkers, part only)
chain, part: QVQLVESGGGLVQAGGSLRLSCAASGSTFGNKPMGWYRQAPGKQRELVAVISSDGGSTRYAALVKGRFTISRDNAKNTVYLQMESLVAEDTAVYYCNALRTYYLNDPVVFSWGQGTQVTVSSHHHHHH
TDCC Average EC50 [M], OVCAR8 cells, human T cells: 3.6e-09 M
